Results: paper PMC9314367

Biological target: Rubisco large subunit CbbL of Cyanobium sp. PCC 7001 (Cyanobium sp. PCC 7001)
Assay: cryo-EM structure; cryo-electron tomography with subtomogram averaging (emClarity) of Rubisco inside isolated native Cyanobium α-carboxysomes in TEMB buffer; 3.8 Å; all Rubiscos and the three concentric layers averaged separately

stoichiometry N: 8
Substance: Rubisco large subunit CbbL of Cyanobium sp. PCC 7001 (natural protein)
